Experimental data published in PMC2993938, “Characterization of an Antennal Carboxylesterase from the Pest Moth Spodoptera littoralis Degrading a Host Plant Odorant” (PLoS ONE, 2010).

Substrate: CC/C=C\CCOC(C)=O
Assay: GC quantification of (Z)-3-hexenol formed, nonlinear regression
Type: biochemical, Spodoptera littoralis
Settings: 20 mM Tris pH 7.4 and 28 °C (stated for the hydrolysis assay), 5 min incubation, 1 mM to 20 mM substrate, no detergent

B1: SlCXE10 (Spodoptera littoralis) (protein)
chain: MVQVRVSEGVLEGEQVQNEYGGSFYRFRGIPYAQPPLGDLRFKAPQPIKPWQGVRQAKQFGSVCYQYNPTNLGLSNMSEDCLYVNVYTPDIKPQTPIPVMVWIHGGGFMWGSGNDDLYGPEFLIRHNVVLVTFNYRLEALGFLCLDTADVPGNAGMKDQVAALRWVKRNIANFGGNPDNITIFGESAGGGSVSHHLISPMSKGLFNRAIPQSGSTACFWATAFEPKEKAILLAKQLGFHSEDPKELYEFFKKQPCENLVKLNLQVTTSQKSYEIHFSIANEKDFGQERFFYGDIVDVIKNNLQEGVDIMTGYTKDEYTIAVSIGGPLEDILAKAQRYREFFAPKLLHNYGTITDQLEAARKLQKFYFKNEKVSKDNIDNLLNYMSVDMFVYGVMFAAKLYSRKNKVYVYKFNCFSERNVLANAFCVGHLTDDRSVVSHADDLAYLFPVKLFTQKVNKTSVTFKLIDRVTTLWTNFAKYGNPTPDDSLGVKWLPYTLAAQDYMDIGNTLVPGNSPDKEELDFWESVLHQHLPKFSTLNQ
notes: complete ORF (no signal peptide), C-terminal 6His tag kept (pBlueBac4.5/V5-His TOPO), baculovirus / Sf21 cells, Ni-NTA purified, about 60 kDa (predicted 61 kDa)
B1 gave a Km of 11.4 ± 4.8 mM.
